US20040258705A1, “Use of lectins to promote oligomerization of glycoproteins and antigenic molecules” (Antigenics Inc., priority 2003, published 2004)
Entries after “also recorded” stand apart in the source; their conditions may differ.

Key:
[1] = Sigma lectin list; cited from earlier work
gp96 = gp96 (Mus musculus, UniProt P08113); experiment: Analytical SEC of Meth A gp96 with added Con A; type: binding, murine
Description: To verify gp96 was oligomerized with Con A, a common homogenate from Meth A-induced murine fibrosarcoma tissue was prepared and processed using a process that included Con A and DEAE column chromatography. The final purified gp96 preparation was divided in two. To one half of the material, exogenous con A was added to a final concentration of 50 ug/mL; buffer alone was added to the other as a control, both samples incubated at 37° C. for 2 hr and then fractionated by SEC (Superdex 200). Individual fractions were analyzed by SDS-PAGE, and by gp96- and con A-specific ELISA. Analytical data for material […] is shown in the left panel; that to which con A was added to the right. In the left panel the peak of gp96 is in fraction 5 and con A levels as detected by specific ELISA are low. In the right panel (con A added) two peaks of gp96 are evident as shown by SDS-PAGE (inset; peak fractions 3 (arrow) and 5) and gp96 ELISA (fractions 3 and 5) as well as a distinct peak of Con A centered on fraction 3.
Con A was added (50 ug/mL final) to an aliquot of this gp96 sample (conc. 500 ug/ml), the sample incubated at RT and hourly samples were taken (T=1 through T=5) and analyzed by SEC. A sample comprising con A alone was also run. […] Each sample was then re-analyzed by SEC. […]

Meth A cells = experiment: In vivo Meth A tumor inhibition (tumor protection / rejection) assay; parameters: species or system BALB/c mice; conditions: for tumor rejection activity, Con A added in process or to final product: in process 30 and 300 μg/ml, following purification 30 μg/ml
Description: (§1) In vivo Meth A growth inhibition assay: BALB/c mice (n=30/group) were immunized on day 0 and day 7 with 10 or 50 μg of gp96 intradermally in the flank. On study day 14, mice were challenged with 1×10^5 Meth A cells intradermally in a total volume of 100 μl. Growing tumors were monitored during the subsequent four weeks. All animals were euthanized on study day 41 after a final tumor measurement. Data was reported as percentage of animals that are tumor-free on study day 41. Control groups included un-immunized (diluent—negative control) and immunized with irradiated Meth A cells (positive control).
as §1, with “(n=10/group)” for “(n=30/group)”, “10” for “10 or 50”, “gl.” for “μl.”
as §1, with “(n=10/group)” for “(n=30/group)”, “10” for “10 or 50”
as §1, with “mice (n=10/group)” for “mice (n=30/group)”, “with 0.3” for “with 10”, “or 3” for “or 50”, “gp96 alone or in combination with Con A” for “gp96”

Concanavalin A [Con A]
Specificity Sugar [1]: α-man, α-glc
elution position of gp96 in SEC (gp96; Con A 50 ug/mL added to Meth A gp96, Superdex 200 or superose 6): mediated a shift in the elution position of the gp96 dimer peak

PHA-L: Phaseolus Vulgaris lectin, Sigma product
Specificity Sugar [1]: oligosaccharide

PHA-E: Phaseolus Vulgaris lectin, Sigma product
Specificity Sugar [1]: oligosaccharide

CO[C@H]1O[C@H](CO)[C@@H](O)[C@H](O)[C@@H]1O [α-MM, Methyl α-D-Mannopyranoside, reference compound]
effect on high molecular weight gp96-Con A complex in SEC (gp96; equal volume of PBS containing 10% α-MM added to 5 hr gp96 + Con A sample): dissociated the high molecular weight complex

B1: Pseudomonas aeruginosa (PA-I): lectin, Sigma product (protein, UniProt Q05097 2-122, looked up)
PA-I galactophilic lectin: AWKGEVLANNEAGQVTSIIYNPGDVITIVAAGWASYGPTQKWGPQGDREHPDQGLICHDAFCGALVMKIGNSGTIPVNTGLFRWVAPNNVQGAITLIYNDVPGTYGNNSGSFSVNIGKDQS
Specificity Sugar [1]: gal

B2: HSPPC-96 + Con A (in process): Meth A derived gp96 with Con A added during the purification process, before the DEAE column (protein, UniProt P08113 22-802, looked up)
Endoplasmin: DDEVDVDGTVEEDLGKSREGSRTDDEVVQREEEAIQLDGLNASQIRELREKSEKFAFQAEVNRMMKLIINSLYKNKEIFLRELISNASDALDKIRLISLTDENALAGNEELTVKIKCDKEKNLLHVTDTGVGMTREELVKNLGTIAKSGTSEFLNKMTEAQEDGQSTSELIGQFGVGFYSAFLVADKVIVTSKHNNDTQHIWESDSNEFSVIADPRGNTLGRGTTITLVLKEEASDYLELDTIKNLVRKYSQFINFPIYVWSSKTETVEEPLEEDEAAKEEKEESDDEAAVEEEEEEKKPKTKKVEKTVWDWELMNDIKPIWQRPSKEVEEDEYKAFYKSFSKESDDPMAYIHFTAEGEVTFKSILFVPTSAPRGLFDEYGSKKSDYIKLYVRRVFITDDFHDMMPKYLNFVKGVVDSDDLPLNVSRETLQQHKLLKVIRKKLVRKTLDMIKKIADEKYNDTFWKEFGTNIKLGVIEDHSNRTRLAKLLRFQSSHHSTDITSLDQYVERMKEKQDKIYFMAGSSRKEAESSPFVERLLKKGYEVIYLTEPVDEYCIQALPEFDGKRFQNVAKEGVKFDESEKTKESREATEKEFEPLLNWMKDKALKDKIEKAVVSQRLTESPCALVASQYGWSGNMERIMKAQAYQTGKDISTNYYASQKKTFEINPRHPLIRDMLRRIKEDEDDKTVMDLAVVLFETATLRSGYLLPDTKAYGDRIERMLRLSLNIDPEAQVEEEPEEEPEDTSEDAEDSEQDEGEEMDAGTEEEEEETEKESTEKDEL
modifications: tumor-derived; Con A added
notes: Meth A derived gp96 with Con A added during the purification process, before the DEAE column
tumor rejection activity, Con A added in process at graded levels (Meth A cells; Con A 3, 10, 30, 100, 300 ug/ml added before DEAE, 10 μg gp96, tumor-free on day 41): titratable increase in the tumor rejection activity
tumor rejection activity, Con A added in process or to final product (Meth A cells; 10 μg gp96): increase in the tumor rejection activity; also recorded: increases the tumor rejection activity

B3: HSPPC-96 + Con A (final product): Meth A derived gp96 purified by standard procedure with Con A (30 ug/mL) added following purification (protein, UniProt P08113 22-802, looked up)
Endoplasmin: DDEVDVDGTVEEDLGKSREGSRTDDEVVQREEEAIQLDGLNASQIRELREKSEKFAFQAEVNRMMKLIINSLYKNKEIFLRELISNASDALDKIRLISLTDENALAGNEELTVKIKCDKEKNLLHVTDTGVGMTREELVKNLGTIAKSGTSEFLNKMTEAQEDGQSTSELIGQFGVGFYSAFLVADKVIVTSKHNNDTQHIWESDSNEFSVIADPRGNTLGRGTTITLVLKEEASDYLELDTIKNLVRKYSQFINFPIYVWSSKTETVEEPLEEDEAAKEEKEESDDEAAVEEEEEEKKPKTKKVEKTVWDWELMNDIKPIWQRPSKEVEEDEYKAFYKSFSKESDDPMAYIHFTAEGEVTFKSILFVPTSAPRGLFDEYGSKKSDYIKLYVRRVFITDDFHDMMPKYLNFVKGVVDSDDLPLNVSRETLQQHKLLKVIRKKLVRKTLDMIKKIADEKYNDTFWKEFGTNIKLGVIEDHSNRTRLAKLLRFQSSHHSTDITSLDQYVERMKEKQDKIYFMAGSSRKEAESSPFVERLLKKGYEVIYLTEPVDEYCIQALPEFDGKRFQNVAKEGVKFDESEKTKESREATEKEFEPLLNWMKDKALKDKIEKAVVSQRLTESPCALVASQYGWSGNMERIMKAQAYQTGKDISTNYYASQKKTFEINPRHPLIRDMLRRIKEDEDDKTVMDLAVVLFETATLRSGYLLPDTKAYGDRIERMLRLSLNIDPEAQVEEEPEEEPEDTSEDAEDSEQDEGEEMDAGTEEEEEETEKESTEKDEL
modifications: tumor-derived; Con A added
tumor rejection activity, Con A added in process or to final product (Meth A cells; 10 μg gp96): increase in the tumor rejection activity; also recorded: increases the tumor rejection activity

B4: scFv-purified Meth A gp96 + Con A: Meth A derived gp96 from anti-gp96 scFv immunoaffinity column, Con A added (protein, UniProt P08113 22-802, looked up)
Endoplasmin: DDEVDVDGTVEEDLGKSREGSRTDDEVVQREEEAIQLDGLNASQIRELREKSEKFAFQAEVNRMMKLIINSLYKNKEIFLRELISNASDALDKIRLISLTDENALAGNEELTVKIKCDKEKNLLHVTDTGVGMTREELVKNLGTIAKSGTSEFLNKMTEAQEDGQSTSELIGQFGVGFYSAFLVADKVIVTSKHNNDTQHIWESDSNEFSVIADPRGNTLGRGTTITLVLKEEASDYLELDTIKNLVRKYSQFINFPIYVWSSKTETVEEPLEEDEAAKEEKEESDDEAAVEEEEEEKKPKTKKVEKTVWDWELMNDIKPIWQRPSKEVEEDEYKAFYKSFSKESDDPMAYIHFTAEGEVTFKSILFVPTSAPRGLFDEYGSKKSDYIKLYVRRVFITDDFHDMMPKYLNFVKGVVDSDDLPLNVSRETLQQHKLLKVIRKKLVRKTLDMIKKIADEKYNDTFWKEFGTNIKLGVIEDHSNRTRLAKLLRFQSSHHSTDITSLDQYVERMKEKQDKIYFMAGSSRKEAESSPFVERLLKKGYEVIYLTEPVDEYCIQALPEFDGKRFQNVAKEGVKFDESEKTKESREATEKEFEPLLNWMKDKALKDKIEKAVVSQRLTESPCALVASQYGWSGNMERIMKAQAYQTGKDISTNYYASQKKTFEINPRHPLIRDMLRRIKEDEDDKTVMDLAVVLFETATLRSGYLLPDTKAYGDRIERMLRLSLNIDPEAQVEEEPEEEPEDTSEDAEDSEQDEGEEMDAGTEEEEEETEKESTEKDEL
modifications: tumor-derived; Con A added
tumor rejection activity, immunoaffinity (scFv) purified gp96 with Con A (Meth A cells; 0.3 or 3 μg gp96 alone or in combination with Con A): increases the tumor rejection activity
